# Patent US20220273810A1 (IMCARE BIOTECH, published 2022)
# B1: IM-E2 (antibody, V domains shown)
# VH: QSVKESEGGLFKPTDTLTLTCTVSGFSLSAYAISWVRQAPGNGLEWIGAINSGGSAYYANWAKSRSTITRNTNLNTVTLKMTSLTAADTATYFCAREDIYDYGGAFDPWGPGTLVTVST
# VL: AYDMTQTPASVEVTVGGTVTIKCQASQGISSYLSWYQQKPGQPPKLLIYAATTLVSGVSSRFKGSGSGTQFTLTISGVECADAATYYCQQDYTTSNVDNTFGGGTEVVVKG
# notes: Rabbit monoclonal antibody
# B2: IM-A6 (antibody, V domains shown)
# VH: QSVKESEGGLFKPTDTLTLTCTVSGFSLSSYAISWVRQAPGNGLEWIGRINSGGATDYASWARSRSTITRDTNLNTVTLQMTSLTAADTATYFCAKEEYSYGGAYGMWGPGTLVTVSS
# VL: AYDMTQTPASVSAAVGGTVTIKCQASESISTYLSWLQQKPGQPPKLLIYKASTLASGVPSRFKGSGSGTEFTLTISGVQCDDAATYYCQQDYTISNVGNVFGGGTEVVVKG
# notes: Rabbit monoclonal antibody; also called I-A6
# B3: IM-C6 (antibody, V domains shown)
# VH: QSVKESEGGLFKPTDALTLTCTVSGFSLSSYAISWVRQAPGSGLEWIGAINTYGGTYYASWAKSRSTITRNTNENTVTLKMTSLTAADTATYFCARDFDSDAYTSASGGMDPWGPGTLVTVSS
# VL: AYDMTQTPASVEVAVGGTVTIKCQASQSINNYLSWYQQIPGQPPKLLIYRASTLASGVSSRFKGSGSGTQFTLTISGVQCADAATYYCQQGYTSNVDNVFGGGTEVVVKG
# notes: Rabbit monoclonal antibody
# B4: IM-A1 (antibody, V domains shown)
# VH: QSVKESEGGLFKPTDTLTLTCTVSGFSLSSNAISWVRQAPGNGLEWIGAIGSSGSTYYASWAKSRSTVTRNTNLNTVTLKMTSLTAADTATYFCARWENIGYTNVRLDLWGQGTLVTVSS
# VL: AYDMTQTPASVEVAVGGTVTIKCQASQSISTALAWYQQKPGQPPKLLIYGASTLASGVSSRFKGSGSGTQFTLTISGVECADAATYYCQQGYSTSDVDNAFGGGTEG
# notes: Rabbit monoclonal antibody; also called I-A1
# B5: IM-G6 (antibody, V domains shown)
# VH: QSVKESEGGLFKPTDTLTLTCTVSGFSLSSYPISWVRQAPGNGLEWIGDIYASGSILYASWATGRSTITRNTNLNTVTLKMTSLTAADTATYFCARVSYSGGTDIWGPGTLVTVSS
# VL: AYDMTQTPASVEVAVGGTVTIKCQASEDIESYLAWYQQKPGQPPKLLIYRASTLPSGVPSRFKGSGSGTEFTLTISDLECADAATYYCQQDYSSSNVDNTFGGGTEVVVKG
# notes: Rabbit monoclonal antibody
# B6: IM-D3 (antibody, V domains shown)
# VH: QSVKESEGGLFKPTDTLTLTCTVSGFSLSSYAIGWVRQAPGNGLEWIGTIVTSGIPYYANWAKSRSTITRNTNLNTVTLKMTSLTAADTATYFCARNLDPAYSTTRLDLWGQGTLVTVSS
# VL: AYDMTQTPASVSEPVRGTVTIKCQASQSISTALAWYQQKPGQPPKLLIYAASYLASGVPSRFSGSGSGTEFTLTISDLECADAATYYCHQGYSASNVDNTFGGGTEGGVKG
# notes: Rabbit monoclonal antibody
# B7: IM-D5 (antibody, V domains shown)
# VH: QSVKESEGGLFKPTDTLTLTCTVSGFSLSSYAISWVRQAPGNGLEWIGAIGKSGSAYYASWAKSRSTITRNTNLNTVSLKMTSLTAADTATYFCARWDSVGWTDARLDLWGQGTLVTVSS
# VL: AYDMTQTPASVEVAVGGTVTIKCQASQSISTALAWYQQKPGQRPKLLIYGASKLASGVSSRFSGSGSGTEFTLTISGVECADAATYYCQQGYETSNVDNAFGGGTEVVVKG
# notes: Rabbit monoclonal antibody
# B8: IM-B10 (antibody, V domains shown)
# VH: QSVKESEGGLFKPTDTLTLTCTVSGFSLSSYGVSWVRQAPGKGLEWIGSIWSGGTTDYASWAKSRSTITRNTNENTVTLKVTSLTAADTATYFCARGGYDYGYASNIWGPGTLVTVSS
# VL: AYDMTQTPASVEVAVGGTVTIKCQASESISSYLSWYQQKPGQPPKLLIYRASTLASGVPSRFSGSGSGTEFTLTISDGQCDDAATYYCQQGYSVSNVDNIFGGGTEVVVKG
# notes: Rabbit monoclonal antibody; also called IM4-B10
# B9: IM-F5 (antibody, V domains shown)
# VH: QSVKESEGGLFKPTDTLTLTCTVSGFSLSIYGVSWVRQAPGNGLEWIGIIYASGSADYASWAKSRSTITRNTNLNTVTLKMTSLTAADTATYFCAREDDTYGYTSSIWGPGTLVTVSS
# VL: AYDMTQTPASVSAAVGGTVTIKCQASQSISSYLNWYQQKPGQPPKRLIYRASTLASGVSSRFKGSGSGTQFTLTISGVECADAATYYCQQDYSSNNIDNTFGGGTEVVVKG
# notes: Rabbit monoclonal antibody
# B10: IM-G7 (antibody, V domains shown)
# VH: QSVKESEGGLFKPTDTLTLTCTVSGFSLSSNVISWVRQAPGKGLEWIGDIYVSGNTDYASWAKSRSTITRNANLNTVTLKMTSLTAADTATYFCARYDMSSDAFDPWGPGTLVTVSS
# VL: AYDMTQTPASVEVAVGGTVTIKCQASQNIGSYLSWYQHKPGQRPRLLMYRASTLASGVSSRFKGSGSGTEFTLTISGVQCDNAATYYCQQGYTNSGVDNTFGGGTEVVVKG
# notes: Rabbit monoclonal antibody
# Molecular target: AS-SPIK (Abnormal Secreted serine protease inhibitor Kazal) (Homo sapiens (Human)) (UniProt P00995)
# Assay: sandwich ELISA, HCC patient serum (serum AS-SPIK), complex captured on polyclonal anti-SPIK plate, anti-rabbit-HRP/TMB
row,Binder,OD [OD]
1,B1,1.48

# Molecular target: T1, NS-SPIK (Normal Secreted serine protease inhibitor Kazal) (Homo sapiens (Human), UniProt P00995 24-79)
# T1 construct: also called Normal Secreted SPIK
# T1 sequence: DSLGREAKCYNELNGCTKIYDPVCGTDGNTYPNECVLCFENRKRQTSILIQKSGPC
# Assay: ELISA on a plate immobilised with NS-SPIK from pancreatic cells, OD450nm; antibody concentration not given
# Method: Ten monoclonal antibodies described here were generated from rabbit. Briefly, rabbit were immunized with the recombinant AS-SPIK which contain different subsets of 23 extra amino acids (SEQ ID NO: 81). The blood was tested after three or four time imbursements by ELISA. Briefly, blood from immunized rabbits were reacted with plate coated with recombinant AS-SPIK. After washing, the color was developed by incubation of the plate with an anti-rabbit antibody labeled with HRP (horseradish peroxidase), and the optical density was measured after reaction with substrate TMB. The rabbit which is positive in test (produced antibody) was sacrificed. The monoclonal antibody was then established and further screened with ELISA using the plates immobilized with partially purified AS-SPIK from S2-3 cells, a cell line expresses high amount of AS-SPIK by integrated entire SPIK gene, Lu et. al Tumor-associated protein SPIK TATI suppresses serine protease dependent cell apoptosis, Apoptosis, 2008 13(4), 483-494 and NS—SPIK from pancreatic cells. Finally, 10 monoclonal antibodies which strongly bind AS-SPIK but not NS-SPIK were selected.
row,Binder,binding result
1,B2,no binding
2,B3,no binding
3,B4,no binding
4,B5,no binding
5,B6,no binding
6,B7,no binding
7,B8,no binding
8,B9,no binding
9,B10,no binding
10,B1,no binding

# Molecular target: AS-SPIK (Abnormal Secreted serine protease inhibitor Kazal) (Homo sapiens (Human)) (UniProt P00995)
# Assay: sandwich ELISA, S2-3 medium, complex captured on polyclonal anti-SPIK plate, anti-rabbit-HRP/TMB
row,Binder,OD [OD]
1,B1,1.39
